Reference: paper PMC4258470 (Journal of molecular biology, 2014)
Like-named read-outs stand apart in the source and are kept apart here. Where no end group is shown, it is not given here. [ ]: non-standard residue; d: D form. pS = N[C@@H](COP(=O)(O)O)C(=O)O

T1: H6GB1-E7(1-98), full length HPV16 E7 fused to His6-GB1, unphosphorylated (HPV16, UniProt P03129 1-98)
T1 sequence: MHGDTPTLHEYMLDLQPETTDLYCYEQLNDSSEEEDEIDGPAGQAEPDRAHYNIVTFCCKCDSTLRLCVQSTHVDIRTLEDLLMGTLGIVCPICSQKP

T2: E7(1-98), full length HPV16 E7, unphosphorylated, MBP removed (HPV16, UniProt P03129 1-98)
T2 sequence: T1 sequence

T3: H6GB1-E7(1-98), full length HPV16 E7 fused to His6-GB1, phosphorylated by CKII (HPV16, UniProt P03129 1-98)
T3 sequence: T1 sequence

B1: E7(1-51) from HPV16, unphosphorylated, tag removed (domain or fragment)
chain: MHGDTPTLHEYMLDLQPETTDLYCYEQLNDSSEEEDEIDGPAGQAEPDRAH
B2: TAZ2 domain of mouse CBP (residues 1764-1855) (domain or fragment, UniProt P45481 1764-1855, looked up)
chain: SPQESRRLSIQRCIQSLVHACQCRNANCSLPSCQKMKRVVQHTKGCKRKTNGGCPVCKQLIALCCYHAKHCQENKCPVPFCLNIKHKLRQQQ
B3: pp6b-E7(1-51), phosphorylated E7(1-51) from low risk HPV6b (domain or fragment)
chain: MHGRHVTLKDIVLDLQPPDPVGLHCYEQLVDSSEDEVDEVDGQDSQPLKQH
modifications: also: phosphorylated by CKII, positions not given here
B4: 6b-E7(1-51), unphosphorylated E7(1-51) from low risk HPV6b (domain or fragment)
chain: B3 chain
B5: ppE7(1-51), HPV16 E7(1-51) phosphorylated by casein kinase II at serines 31 and 32 (domain or fragment)
chain: MHGDTPTLHEYMLDLQPETTDLYCYEQLND[pS][pS]EEEDEIDGPAGQAEPDRAH
B6: H6Rb-AB, His6-tagged central pocket of the retinoblastoma protein (domain or fragment)
chain: HTPVRTVMNTIQQLMMILNSASDQPSENLISYFNNCTVNPKESILKRVKDIGYIFKEKFAKAVGQGCVEIGSQRYKLGVRLYYRVMESMLKSEEERLSIQNFSKLLNDNIFHMSLLACALEVVMATYSRSTSQNLDSGTDLSFPWILNVLNLKAFDFYKVIESFIKAEGNLTREMIKHLERCEHRIMESLAWLSDSPLFDLIKQSKGSGSTSLSLFYKKVYRLAYLRLNTLCERLLSEHPELEHIIWTLFQHTLQNEYELMRDRHLDQIMMCSMYGICKVKNIDLKFKIIVTAYKDLPHAVQETFKRVLIKEEEYDSIIVFYNSVFMQRLKTNILQYAST
B7: ppE7(1-51) C24A,A50C-594, HPV16 E7(1-51) double mutant, phosphorylated and labelled with Alexa Fluor 594 (domain or fragment)
chain: MHGDTPTLHEYMLDLQPETTDLYAYEQLND[pS][pS]EEEDEIDGPAGQAEPDRC(Alexa Fluor 594)H

Tests used:
[1] = biological target: B2; assay: fluorescence polarisation
[2] = biological target: T1, H6GB1-E7(1-98), full length HPV16 E7 …; assay: pull-down
[3] = biological target: T2, E7(1-98), full length HPV16 E7, …; assay: NMR titration
[4] = biological target: B2; assay: NMR titration
[5] = biological target: TAZ1 domain of mouse CBP (residues 345-439) (mouse, UniProt P45481 345-439); assay: NMR titration
[6] = biological target: T3, H6GB1-E7(1-98), full length HPV16 E7 …; assay: pull-down
[7] = biological target: T1, H6GB1-E7(1-98), full length HPV16 E7 …; assay: pull-down; remark: listed apart in the source
[8] = biological target: B2; assay: fluorescence polarisation; remark: listed apart in the source

Chain of TAZ1 domain of mouse CBP (residues 345-439) (P45481 345-439): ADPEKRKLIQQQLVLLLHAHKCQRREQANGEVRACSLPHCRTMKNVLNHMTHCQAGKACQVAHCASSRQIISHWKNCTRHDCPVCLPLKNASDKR

Binder: B1
- Kd [1]: 22 ± 6 nM

Binder: B2
- binding result [2]: binds
- binding result [3]: binds

Binder: B3
- Kd [1]: 31 ± 3 nM

Binder: B4
- Kd [1]: 79 ± 10 nM

Binder: B5
- Kd of the primary binding site (Kd1, 2-site model) [4]: 4 ± 3 nM
- Kd of the secondary binding site (Kd2, 2-site model) [4]: 33000 ± 2000 nM
- Kd [5]: 7000 ± 300 nM
- Kd [1]: 7 ± 3 nM

Binder: B6
- binding result [6]: binds
- binding result [7]: binds

Binder: B7
- Kd [8]: 28 ± 6 nM
